Experimental data taken from article PMC2111714.

Target: Cross-linked succinyl Con A (resuccinylated) (Canavalia ensiformis (jack bean))
Test: radioligand binding

Substance: Dolichos biflorus lectin (natural protein)
- glycoprotein specifically bound: 96 ng/plate
